According to the supplement of paper PMC12042874:
± gives the uncertainty stated by the source.

Test: amyloid nucleation score (Sup35N fusion, yeast selection) (log enrichment); library NNK3; higher = more nucleation; inactive = no reads after selection
How it was run: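 Psi-negative yeast expressed Sup35N fused to peptides of 20 random codons. They were induced 24 hours with 100 μM copper sulfate, grown 7 days at 30°C without adenine and uracil, and their plasmid inserts from input and output were Illumina-sequenced. The nucleation score is the DiMSum log enrichment of output over input reads, centred on the mode score of non-aggregating sequences. Sequences with under 100 input reads were excluded.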

Substance	amyloid nucleation score
IGFIIGDVFAA	inactive
IGGDSRHI	inactive
IGGEYGFLSCYSIGVTTFYV	inactive
IGIDMMMESKLYSCCNLDMY	1.38 ± 0.078
IGIEFLNLKHLPSYLLSVRF	inactive
IGKRSVRVIDPVFYKPFANM	inactive
IGLSLE	inactive
IGMVHCIAEDARRLLLYIWV	inactive
IGRNSSKIFLFFCSCMRMFS	2.95 ± 0.077
IGVTPDHRSMLGRNLCLC	inactive
IGYKLNFCASILDFSYCKIY	1.07 ± 0.19
IHIGTPFRGSHTFASVRRK	inactive
IHKCYT	inactive
IHRYGTRRYETLRGQHAPFP	-0.719 ± 1.4
IHSPKLLAGAM	inactive
IICGSCPRR	inactive
IICLSGGDFRRYELDHSN	inactive
IIFQTVR	inactive
IIGKRTSMVAITLFDINGSS	inactive
IIGTLSRMLDIGIIFVTT	-0.154 ± 0.88
IIHGHHWFGYNSRLCC	inactive
IIIVILLQNWTSVRAVKPIV	inactive
IIIVKCT	inactive

Substance	amyloid nucleation score
IIRVRQTLSVRFIYIF	inactive
IITPELYGKLRLHH	inactive
IITTHSFQTDWHISEYQDIC	inactive
IIWAVRKGTPSSRRVTWAGK	inactive
IIYKTVHVYVYCSIVLERDL	inactive
IKEFLCLDLCQGGGLLSLMV	inactive
IKFVIIRITHSREKFSVPLS	inactive
IKPSMQIILWFGLERYSRAW	-0.308 ± 0.6
IKQRDN	inactive
IKRCK	1.39 ± 0.076
IKTRAKLLYFQLVVLTNFLP	inactive
IKVEATRSAVASLRLHI	inactive
IKWFLSNGIYYGILNFIDTR	inactive
IKYFAIVSVCGFVA	1.23 ± 0.13
ILAHPCSYRFGSWGRLINRN	inactive
ILCGESTR	inactive
ILDAMDTLLRYSGCDRLSWK	inactive
ILDMSERFQILNNFR	inactive
ILDWG	0.886 ± 0.15
ILFEFTTPNLSYIFCFFTIH	inactive
ILGKRC	inactive
ILHFRETLTRINNLEA	inactive
ILHKGNS	inactive

Substance	amyloid nucleation score
ILKVLFKF	1.13 ± 0.1
ILLKNFGYEHAAKLNTMKMI	inactive
ILLRPPGWSRQWSVRWGNYP	inactive
ILLSSHSSECNNALIRRF	1.46 ± 0.074
ILNRLCRDLYVAFTSSAACR	inactive
ILPDLRTFPWSPVVIVHSR	inactive
ILPLMEFGEPKFESSVYSS	inactive
ILRFFIT	inactive
ILSILMCLQETNTDYNSMNR	inactive
ILSTIVMFLVPSYHLFWLWA	inactive
ILSVSLVVHRKRTTWISNYH	inactive
ILTGNGYDSTRKAYCQFWCF	inactive
ILTHTEVCIPSVRTLSGCKG	inactive
ILVIYCRVMKCFKCTRMRLC	inactive
IMANFVRMYLEYMMRAAVSL	inactive
IMCANSEVVKCYCNRTKLEL	1.08 ± 0.14
IMLLLYSESYLTPRTVVNSR	inactive
IMPYC	inactive
IMSFVS	0.031 ± 0.43
IMSSTGIFNLLRAESMCSLF	inactive
IMTVSLGGRNSDSDNLSCLD	inactive
INFLCTDAFTMKFTGAYGKH	2.4 ± 0.054
INIWSMYYMILLLFFIIYRL	0.55 ± 0.24

Substance	amyloid nucleation score
INPFLHMVTSLIVEFRVLNC	inactive
INPMGITDSVCSTAASG	inactive
INRDYSVIVSGSYHHSSLTE	inactive
INSWIPWWLERKWSWHLASI	inactive
INWAKHDWGFNYFSCSICWV	1.39 ± 0.079
INYLFASRSKQEQLLDWRFS	inactive
INYSWFDLSMALTK	inactive
IPEYYKIRWRYGACRSCIVI	inactive
IPGYLLDHTAHK	inactive
IPHAARLCLMWIILWLI	inactive
IPIFWCYI	inactive
IPLLQCNIERYISLFVLVVG	inactive
IQDFSCFQRSEAVTIQGRS	inactive
IQIVSWQSAL	inactive
IQLWRTADGVYKVSGVNK	inactive
IQYIMTNLGPDYNRFEYM	inactive
IRALRKRDEDGSLLTGTLFC	-0.385 ± 1.1
IRFQSYRLASSSLVCDCVFC	0.627 ± 0.31
IRGKYRLVVRDSLNVTPYRV	inactive
IRMYSIWREDVSRRKARCMW	inactive
IRNSVLWGHFIR	inactive
IRRFIKNIVYTYGHLLLEAH	inactive
IRSERTLDSATWDPFVVLKD	inactive

Substance	amyloid nucleation score
IRSRTVTWQQWQLHSRNGRS	0.086 ± 0.56
IRTSLSSVLDVCHTSNTI	inactive
IRVRTYSTKLPSLGH	inactive
IRYRRHVNVEFKMYNWSCWC	-0.554 ± 0.63
ISAGFAGNN	inactive
ISDDICSVKVSGRRACHWIG	inactive
ISDLWLFATCSLK	inactive
ISDPRLGKVPLWDMSSIVYV	inactive
ISFGYQVYA	inactive
ISFRYHIYRSNCSQMNGRLT	inactive
ISGKCRIVAVESSCECSLSS	inactive
ISHVEYLVLEPSMVYF	-0.349 ± 0.59
ISKSVLMMNTAKIPPPMF	inactive
ISLVLVCYKASVITLWENQW	-0.627 ± 1.4
ISMFDPLRCPWSNYGMCG	inactive
ISMLTVVSN	inactive
ISMSVYFFTIISSQFMFPIR	inactive
ISNSYH	inactive
ISNVIMWNWGLDFTNYYSDS	1.45 ± 0.093
ISQFHYLGRIST	inactive
ISQGFGCEFVFWFEEGKFFH	inactive
ISRLR	inactive
ISRVCSNFLGLDVTFLMLLT	1.42 ± 0.14

Substance	amyloid nucleation score
ISSNLLHAVWYSHEPGW	1.81 ± 0.061
ISWVRFRAVFWMRMFEAH	-0.441 ± 1.4
ITKQEVLSLTIFRMAEGVQW	0.382 ± 0.4
ITQLFSSLRADYAAQYYLGV	inactive
ITQWWVYIKNF	inactive
ITVFNLILM	2.61 ± 0.058
ITVSTGW	inactive
ITYFLWAVFYDGFSMSFFVA	inactive
IVDCLFK	inactive
IVECFYTL	inactive
IVKRFWLNGSFTFSFCNGNG	2.09 ± 0.09
IVLYQATCRSIKRVCVLETL	inactive
IVMIVNTGIA	inactive
IVNIKMNLWFYGNFMLWASS	inactive
IVPSNSARLLSVKALDLPIS	inactive
IVRPLLNFLCDLCRKVALGK	inactive
IVSCLSCHLCLKCYSPLCVL	0.851 ± 0.12
IVSMSCGWFRGYRVDDGYM	1.38 ± 0.083
IVSWKVRSVSLKLLLSCAPD	inactive
IVTNDVCVFSVQYSRFVVRL	0.416 ± 0.23
IVTVLNSVLGKGFQQAPRRG	inactive
IVVCRKEDSAQRFSFVRLSD	inactive
IVVVFNPFGDELTYWVTQSM	inactive

Substance	amyloid nucleation score
IVYMAATKLMVVNSLCNGRG	2.04 ± 0.09
IWCSRAGVRWVEMNVEQVYW	inactive
IWENNSIML	inactive
IWNSRSSCPECALATLETWA	inactive
IWQFRGSPSVYSARREWIDT	inactive
IWTLVVCFLDVRRRR	-0.05 ± 0.53
IYCPYVGCVMSLGTGCM	1.06 ± 0.19
IYCVEERHFLNIYSRMSYYS	inactive
IYDRMGGHL	inactive
IYGSASNYMFILGIDRSRWA	1.14 ± 0.15
IYGVRYWV	inactive
IYLECIYNCFYVYKIMLHRV	inactive
IYLIPITPIPVCYKIFLFGM	1.19 ± 0.079
IYSHSPLFLRRYGAIYESCR	inactive
IYTSGWINYSIARFACCIRW	inactive
IYYPIMCAAVAYLLSSRFRC	inactive
KAERVVRA	inactive
KANDMVFMGGGVLKLGRTLA	inactive
KCAALLDPDSASGGRCEWNC	1.08 ± 0.17
KCLMNFTVMRGASSCLEVPC	inactive
KCPRVDSA	inactive
